The text below walks through data of patent US20250206828A1, “ANTI-ADENOSINE RECEPTOR (A2aR) ANTIBODIES AND THE USE THEREOF” (Adept Therapeutics Inc., priority 2022, published 2025).

Like-named read-outs stand apart in the source and are kept apart here.

In experiment [1] the target is T1, human adenosine A2A receptor (A2aR) (human, UniProt P29274 1-412). Briefly: flow cytometry, HEK293-hA2aR cells, supernatant 1 ug/ml.
The target in experiment [2] is T1, human adenosine A2A receptor (A2aR). Briefly: cell-based or functional assay.
Experiment [3] has the same target. Briefly: flow cytometry, HEK293-hA2aR cells, supernatant 1 ug/ml. Background: A flow cytometer gives signals particle by particle.

T1 sequence (P29274 whole entry): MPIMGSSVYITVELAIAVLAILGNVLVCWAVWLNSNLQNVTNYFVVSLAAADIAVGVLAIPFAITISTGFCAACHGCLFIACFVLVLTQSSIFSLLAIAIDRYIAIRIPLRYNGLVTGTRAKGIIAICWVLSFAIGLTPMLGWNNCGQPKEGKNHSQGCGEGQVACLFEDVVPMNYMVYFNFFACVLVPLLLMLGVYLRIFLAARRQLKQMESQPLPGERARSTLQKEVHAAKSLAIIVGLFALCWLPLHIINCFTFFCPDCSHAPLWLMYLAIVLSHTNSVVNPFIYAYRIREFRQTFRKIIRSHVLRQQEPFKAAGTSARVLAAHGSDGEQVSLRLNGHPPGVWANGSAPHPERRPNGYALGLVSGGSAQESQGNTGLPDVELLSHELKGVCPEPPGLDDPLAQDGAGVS

B1: Hu3F8-H6/Hu3F8-L1 (antibody, human IgG1, V domains shown)
VH: EVQLVQSGAEVKKPGESLRISCKASGFTFTRYWMNWVRQMPGKGLEWIGRIDPSDSETHYNHKFWGHATLSVDKSSSTVYLQWSSLKASDTAMYYCLRSLYGKGDYWGQGTTVTVSS
VL: DVVMTQSPLSLPVTLGQPASISCRSSQSIVHSNGNTYLEWFQQRPGQSPRRLIYKVSNRFSGVPDRFSGSGSGTDFTLKISRVEAEDVGVYYCYQGSHVPLTFGGGTKVEIK
Molecule B1 came in with an MFI in experiment [1] of 158 MFI.

B2: Hu3F6-H2/Hu3F6-L2 (antibody, human IgG1, V domains shown)
VH: EVQLVQSGAEVKKPGASVKVSCKTSGFAFTSYWMNWVRQAPGQGLEWMGRIDPSDSEAHYHHKFWGRVTMTVDTSTSTVYMELSSLRSEDTAVYYCLRSLYGKGDYWGHGTTVTVSS
VL: DVVMTQSPLSLPVTLGQPASISCRSSQSLVHRNGNTYLEWYQQRPGQSPRRLIYKVSNRFSGVPDRFSGSGSGTDFTLKISRVEAEDVGVYYCYQGSHVPLTFGGGTKVEIK
The molecule B2 showed an MFI in experiment [1] of 146 MFI.

B3: Hu3F8-H3/Hu3F8-L2 (antibody, human IgG1, V domains shown)
VH: EVQLVQSGAEVKKPGASVKVSCKASGFTFTRYWMNWVRQAPGQGLEWIGRIDPSDSETHYNHKFWGRATLTVDTSTSTVYMELSSLRSEDTAVYYCLRSLYGKGDYWGQGTTVTVSS
VL: DVVMTQSPLSLPVTLGQPASISCRSSQSIVHSNGNTYLEWYQQRPGQSPRRLIYKVSNRFSGVPDRFSGSGSGTDFTLKISRVEAEDVGVYYCYQGSHVPLTFGGGTKVEIK
For B3, in experiment [1], the MFI came out at 93 MFI.

B4: Hu1B5-H5/Hu1B5-L1 (antibody, human IgG1, V domains shown)
VH: EVQLVQSGAEVKKPGASVKVSCKTSGFTFTRFWMNWVRQAPGQGLEWIGRIDPYDSETQYAHKFWDRATLTVDKSSSTVYMELSSLRSEDTAVYYCGRSLYGKGDYWGQGTTVTVSS
VL: DVVMTQSPLSLPVTLGQPASISCRSSQSIVHSNGNTYLEWFQQRPGQSPRRLIYKVSNRFSGVPDRFSGSGSGTDFTLKISRVEAEDVGVYYCFQGSHVPLTFGGGTKVEIK
Turning to B4, the MFI in experiment [1] was found to be 82 MFI.

B5: Hu1B5-H6/Hu1B5-L1 (antibody, human IgG1, V domains shown)
VH: EVQLVQSGAEVKKPGESLRISCKTSGFTFTRFWMNWVRQMPGKGLEWIGRIDPYDSETQYNHKFWDHATLSVDKSSSTVYLQWSSLKASDTAMYYCGRSLYGKGDYWGQGTTVTVSS
VL: DVVMTQSPLSLPVTLGQPASISCRSSQSIVHSNGNTYLEWFQQRPGQSPRRLIYKVSNRFSGVPDRFSGSGSGTDFTLKISRVEAEDVGVYYCFQGSHVPLTFGGGTKVEIK
Regarding B5, the MFI in experiment [1] came out at 178 MFI.

B6: Hu1B5-H1/Hu1B5-L2 (antibody, human IgG1, V domains shown)
VH: QVQLVQSGAEVKKPGASVKVSCKASGFTFTRFWMNWVRQAPGQGLEWMGRIDPYDSETQYNHKFWDRVTMTRDTSTSTVYMELSSLRSEDTAVYYCGRSLYGKGDYWGQGTTVTVSS
VL: DVVMTQSPLSLPVTLGQPASISCRSSQSIVHSNGNTYLEWYQQRPGQSPRRLIYKVSNRFSGVPDRFSGSGSGTDFTLKISRVEAEDVGVYYCFQGSHVPLTFGGGTKVEIK
With B6, in experiment [1], the MFI is 62 MFI.

B7: Hu3F6-H3/Hu3F6-L2 (antibody, human IgG1, V domains shown)
VH: EVQLVQSGAEVKKPGASVKVSCKTSGFAFTSYWMNWVRQAPGQGLEWIGRIDPSDSEAHYHHKFWGRATLTVDTSSSTVYMELSSLRSEDTAVYYCLRSLYGKGDYWGHGTTVTVSS
VL: DVVMTQSPLSLPVTLGQPASISCRSSQSLVHRNGNTYLEWYQQRPGQSPRRLIYKVSNRFSGVPDRFSGSGSGTDFTLKISRVEAEDVGVYYCYQGSHVPLTFGGGTKVEIK
Molecule B7 showed an MFI in experiment [1] of 200 MFI.

B8: Hu1B5-H2/Hu1B5-L1 (antibody, human IgG1, V domains shown)
VH: EVQLVQSGAEVKKPGASVKVSCKTSGFTFTRFWMNWVRQAPGQGLEWMGRIDPYDSETQYNHKFWDRVTMTVDTSTSTVYMELSSLRSEDTAVYYCGRSLYGKGDYWGQGTTVTVSS
VL: DVVMTQSPLSLPVTLGQPASISCRSSQSIVHSNGNTYLEWFQQRPGQSPRRLIYKVSNRFSGVPDRFSGSGSGTDFTLKISRVEAEDVGVYYCFQGSHVPLTFGGGTKVEIK
Take B8: the MFI in experiment [1] is 165 MFI.

B9: Hu1B5-H3/Hu1B5-L1 (antibody, human IgG1, V domains shown)
VH: EVQLVQSGAEVKKPGASVKVSCKTSGFTFTRFWMNWVRQAPGQGLEWIGRIDPYDSETQYNHKFWDRATLTVDTSSSTVYMELSSLRSEDTAVYYCGRSLYGKGDYWGQGTTVTVSS
VL: DVVMTQSPLSLPVTLGQPASISCRSSQSIVHSNGNTYLEWFQQRPGQSPRRLIYKVSNRFSGVPDRFSGSGSGTDFTLKISRVEAEDVGVYYCFQGSHVPLTFGGGTKVEIK
Turning to B9, the MFI in experiment [1] was 152 MFI.

B10: Hu3F8-H3/Hu3F8-L1 (antibody, human IgG1, V domains shown)
VH: EVQLVQSGAEVKKPGASVKVSCKASGFTFTRYWMNWVRQAPGQGLEWIGRIDPSDSETHYNHKFWGRATLTVDTSTSTVYMELSSLRSEDTAVYYCLRSLYGKGDYWGQGTTVTVSS
VL: DVVMTQSPLSLPVTLGQPASISCRSSQSIVHSNGNTYLEWFQQRPGQSPRRLIYKVSNRFSGVPDRFSGSGSGTDFTLKISRVEAEDVGVYYCYQGSHVPLTFGGGTKVEIK
As to B10, the MFI in experiment [1] is 64 MFI.

B11: Hu1B5-H4/Hu1B5-L1 (antibody, human IgG1, V domains shown)
VH: EVQLVQSGAEVKKPGASVKVSCKTSGFTFTRFWMNWVRQAPGQGLEWIGRIDPYDSETQYNHKFWDRATLTVDKSSSTVYMELSSLRSEDTAVYYCGRSLYGKGDYWGQGTTVTVSS
VL: DVVMTQSPLSLPVTLGQPASISCRSSQSIVHSNGNTYLEWFQQRPGQSPRRLIYKVSNRFSGVPDRFSGSGSGTDFTLKISRVEAEDVGVYYCFQGSHVPLTFGGGTKVEIK
As for B11, the MFI in experiment [1] amounted to 182 MFI.

B12: Hu3F6-H5/Hu3F6-L2 (antibody, human IgG1, V domains shown)
VH: EVQLVQSGAEVKKPGASVKVSCKTSGFAFTSYWMNWVRQAPGQGLEWIGRIDPSDSEAHYAHKFWGRATLTVDKSSSTVYMELSSLRSEDTAVYYCLRSLYGKGDYWGHGTTVTVSS
VL: DVVMTQSPLSLPVTLGQPASISCRSSQSLVHRNGNTYLEWYQQRPGQSPRRLIYKVSNRFSGVPDRFSGSGSGTDFTLKISRVEAEDVGVYYCYQGSHVPLTFGGGTKVEIK
Consider B12, for which the MFI in experiment [1] turned out to be 191 MFI.

B13: Hu3F8-H3/Hu3F8-L4 (antibody, human IgG1, V domains shown)
VH: EVQLVQSGAEVKKPGASVKVSCKASGFTFTRYWMNWVRQAPGQGLEWIGRIDPSDSETHYNHKFWGRATLTVDTSTSTVYMELSSLRSEDTAVYYCLRSLYGKGDYWGQGTTVTVSS
VL: DIVMTQSPLSLPVTPGEPASISCRSSQSIVHSNGNTYLEWYLQKPGQSPQLLIYKVSNRFSGVPDRFSGSGSGTDFTLKISRVEAEDVGVYYCYQGSHVPLTFGGGTKVEIK
notes: Human IgG1 FES (L234F, L235E, P331S) and human Ig kappa constant domains
Consider B13, for which the “IC50 of blocking activity, cAMP-Glo, 300 nM NECA, HEK293-hA2aR cells, supernatant” value (shortened to “IC50 of blocking activity, cAMP-Glo”) in experiment [2] was determined as 1.7 nM. This molecule came in with an MFI in experiment [3] of 1840 MFI.

B14: Hu3F8-H1/Hu3F8-L3 (antibody, human IgG1, V domains shown)
VH: QVQLVQSGAEVKKPGASVKVSCKASGFTFTRYWMNWVRQAPGQGLEWMGRIDPSDSETHYNHKFWGRVTMTRDTSTSTVYMELSSLRSEDTAVYYCLRSLYGKGDYWGQGTTVTVSS
VL: DVVMTQSPLSLPVTLGQPASISCRSSQSIVHSNGNTYLEWYQQRPGQSPRLLIYKVSNRFSGVPDRFSGSGSGTDFTLKISRVEAEDVGVYYCYQGSHVPLTFGGGTKVEIK
notes: as for B13
As to B14, in experiment [2], the “IC50 of blocking activity, cAMP-Glo” value turned out to be 1.5 nM. For the same molecule, in experiment [3], the MFI came to 1810 MFI.

B15: Hu3F8-H5/Hu3F8-L3 (antibody, human IgG1, V domains shown)
VH: EVQLVQSGAEVKKPGASVKVSCKASGFTFTRYWMNWVRQAPGQGLEWIGRIDPSDSETHYNAKFWGRATLTVDKSTSTVYMELSSLRSEDTAVYYCLRSLYGKGDYWGQGTTVTVSS
VL: DVVMTQSPLSLPVTLGQPASISCRSSQSIVHSNGNTYLEWYQQRPGQSPRLLIYKVSNRFSGVPDRFSGSGSGTDFTLKISRVEAEDVGVYYCYQGSHVPLTFGGGTKVEIK
notes: as for B13
In the case of B15, the “IC50 of blocking activity, cAMP-Glo” value in experiment [2] came out at 1.5 nM. The MFI in experiment [3] is 1840 MFI.
